In PMC11790970:
One block for each molecule: values may come before it.

Columns and labels:
[1] = target: actinorhodopsin from Rhodoluna lacicola strain MWH-Ta8 (Rhodoluna lacicola strain MWH-Ta8); assay: cryo-EM structure; single particle analysis, 2D classification, 4 Å projection structure from 53,376 particles; protein purified in 0.25% (w/v) Cymal-5, 2.5 mg/mL
[2] = target: actinorhodopsin from Rhodoluna lacicola strain MWH-Ta8 (Rhodoluna lacicola strain MWH-Ta8); assay: SEC; Superdex 200 Increase 10/300 GL; 20 mM BTP-HCl pH 7.5, 150 mM NaCl, 0.25% (w/v) Cymal-5; sample at about 0.75-1.5 mg/mL; column calibrated with molecular weight markers
[3] = target: Asp85 (UniProt position 98, WARYADWLFTT); conditions: cited from earlier work
[4] = system: Asp97; conditions: cited from earlier work
[5] = target: Asp92 (position 92, …); assay: UV-vis; conditions: not stated (pH adjusted at room temperature), 150 mM NaCl plus 100 mM acetate buffer, with residual HEPES-NaOH from a 5 mM stock diluted 5-fold, Detergent-solubilised, retinal-bound oligomeric RlActR at 0.2 mg/mL, whether the sample was light- or dark-adapted is not stated

stoichiometry N [1]: 5 | stoichiometry N [2]: 5
Molecule: actinorhodopsin from Rhodoluna lacicola strain MWH-Ta8 (natural protein)

Molecule: Bacteriorhodopsin (BR) (Halobacterium salinarum)
pKa [3]: ∼2.6

Molecule: Green-light absorbing proteorhodopsin (GPR) (uncultured marine gamma-proteobacterium)
pKa [4]: ∼7.5

B1: Actinorhodopsin RlActR (Rhodoluna lacicola (strain MWH-Ta8)) (protein)
chain: MNTLSNALDNGQFNLVYNILSLGIASMLFTAIFLFVARERVLPRYRIAVMVSATVTAIAAYHYFRMFDNFSHAFAGAENNPDAYNVGYRYVDWLLTVPLLLVELVAVLALAKAAQSSILNRLVPAAAAMIVLGYPGDAKLDIWGIAPSVWGLLSTIPFLYILYVLFIELGKSLSRQSEAVQKKVKILRLLLIATWGVYPITFILAMGTPPGAPFNASEFVAREVGYSIADILAKCLFGLIIYSIARIKSAEDDKEFAKAEFKDALEGHHHHH
pKa [5]: 5.6
